Keratinocyte migration data for one molecule are collected here from patent US8889615B2, “Methods for promoting epithelialization and healing of chronic wounds” (New York University, priority 2009, dated 2014).

The subject of this assay is Primary human keratinocytes. As to the kind of experiment: Keratinocyte migration, wound scratch assay. It is filed as cell-based. As to conditions: 20 μmol/L LiCl or 25 ng/ml of EGF, 24 and 48 hours. The protocol: Primary human keratinocytes were grown to 80% confluency. Twenty-four hours before the experiment cells were transferred to basal KBM medium (Life Technologies, Inc., Grand Island, N.Y.). Before the scratch, cells were treated with 8 μg/ml mitomycin C (ICN, Irvine, Calif.) for 1 hour and washed with basal media. Scratches were performed as previously described (Lee, et al., J Mol. Biol., 345:1083-1097 (2005)). Cells were incubated with 20 μmol/L LiCl or 25 ng/ml of EGF for 24 and 48 hours, rephotographed, and cell migration was quantified as previously described (Lee, et al., J. Mol. Biol., 345:1083-1097 (2005); Zavadil. et al., EMBO J., 23:1155-1165 (2004)). Thirty measurements were taken for each experimental condition and distance coverage by cells moving into the scratch wound area was quantified. Three images were analyzed per condition, per time point, and averages and standard deviations were calculated.

B1: EGF: epidermal growth factor, promotes keratinocyte migration (protein, UniProt P01133 23-1207, looked up)
Pro-epidermal growth factor: PQHWSCPEGTLAGNGNSTCVGPAPFLIFSHGNSIFRIDTEGTNYEQLVVDAGVSVIMDFHYNEKRIYWVDLERQLLQRVFLNGSRQERVCNIEKNVSGMAINWINEEVIWSNQQEGIITVTDMKGNNSHILLSALKYPANVAVDPVERFIFWSSEVAGSLYRADLDGVGVKALLETSEKITAVSLDVLDKRLFWIQYNREGSNSLICSCDYDGGSVHISKHPTQHNLFAMSLFGDRIFYSTWKMKTIWIANKHTGKDMVRINLHSSFVPLGELKVVHPLAQPKAEDDTWEPEQKLCKLRKGNCSSTVCGQDLQSHLCMCAEGYALSRDRKYCEDVNECAFWNHGCTLGCKNTPGSYYCTCPVGFVLLPDGKRCHQLVSCPRNVSECSHDCVLTSEGPLCFCPEGSVLERDGKTCSGCSSPDNGGCSQLCVPLSPVSWECDCFPGYDLQLDEKSCAASGPQPFLLFANSQDIRHMHFDGTDYGTLLSQQMGMVYALDHDPVENKIYFAHTALKWIERANMDGSQRERLIEEGVDVPEGLAVDWIGRRFYWTDRGKSLIGRSDLNGKRSKIITKENISQPRGIAVHPMAKRLFWTDTGINPRIESSSLQGLGRLVIASSDLIWPSGITIDFLTDKLYWCDAKQSVIEMANLDGSKRRRLTQNDVGHPFAVAVFEDYVWFSDWAMPSVMRVNKRTGKDRVRLQGSMLKPSSLVVVHPLAKPGADPCLYQNGGCEHICKKRLGTAWCSCREGFMKASDGKTCLALDGHQLLAGGEVDLKNQVTPLDILSKTRVSEDNITESQHMLVAEIMVSDQDDCAPVGCSMYARCISEGEDATCQCLKGFAGDGKLCSDIDECEMGVPVCPPASSKCINTEGGYVCRCSEGYQGDGIHCLDIDECQLGEHSCGENASCTNTEGGYTCMCAGRLSEPGLICPDSTPPPHLREDDHHYSVRNSDSECPLSHDGYCLHDGVCMYIEALDKYACNCVVGYIGERCQYRDLKWWELRHAGHGQQQKVIVVAVCVVVLVMLLLLSLWGAHYYRTQKLLSKNPKNPYEESSRDVRSRRPADTEDGMSSCPQPWFVVIKEHQDLKNGGQPVAGEDGQAADGSMQPTSWRQEPQLCGMGTEQGCWIPVSSDKGSCPQVMERSFHMPSYGTQTLEGGVEKPHSLLSANPLWQQRALDPPHQMELTQ
modifications: Pro-epidermal growth factor
notes: epidermal growth factor, promotes keratinocyte migration
Regarding B1, the keratinocyte migration entry was “promoted”.
